Test results reported in the nanobody polyreactivity screen of Harvey et al. (2022).

Assay: yeast display, Sf9 membrane polyspecificity reagent, FACS + sequencing; frameworks hold sequencing errors
In short: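 Galactose-induced (36–48 hours) yeast carrying a synthetic nanobody display library were exposed to 10% biotinylated, detergent-solubilized Sf9 membrane reagent at 4 °C for 1 hour. FACS followed streptavidin microbead enrichment, using low and high (top ~1%) gates for expression (anti-HA) and reagent binding (streptavidin). Colony PCR, MiSeq 2 × 250 sequencing and CDR-length filtering followed. Labels for polyreactivity reflect the gate of origin.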

| Sequence | polyreactivity (PSR sort gate) |
| --- | --- |
| QVQLVESGGGLVQAGGSLRLSSAASGSILSYNAMGWYRQAPGKERELVASITGTGRSTRYADSVKGRFTISRDNAKNSVYLQMNSLKPEDTAVYYCATAAWWYYRIYHEFGYWGQGTQVTVSS | high polyreactivity |
| QVQLVESGGGLVQAGGSLRLSSAASGSNFWYYAMGWYRQSPGKERELVAAISAISGTTYYADSEKGRFTISRDNAKNTVYLQMNSLKPEDTAVYYCNKDASWWTDRSYDYWGQGTQVTVSS | low polyreactivity |
| QVQLVESGGGLVQAGGSLRLSSAASGSTFAFNAMGWYRHAHGKEREFVARITWSDGSTYYADSVKGRFTISRDNAKNTVYLQMNCLKPEDTAVYYCARDPTEQAIARWTYDYWGQGTQVTVSS | low polyreactivity |
| QVQLVESGGGLVQAGGSLRLSSAASGSTFEAYTMGWYRPAPGKERELVAAISRSGGSTYYADSVKGRFTISRDNAKNTVYLQMNSLKPEDTAVYYCAASRYIGYNYWGQGTQVNVSS | high polyreactivity |
| QVQLVESGGGLVQAGGSLRLSSAASGSTFGIYAMGWYRQAPGKERELVAAISSGGSTNYADSVKGRFTISRDNAKNTVYLQMNSLKPEDTAVYYCAVESVYEYGGYVDSAFDYWGQGTQVTVSS | low polyreactivity |
| QVQLVESGGGLVQAGGSLRLSSAASGSTFGKYARGWYRQAPGKERELVAAITVNAGRTYYADSVKGRFTISRDNAKNTVYLQLNSLKPEDTAVYYCAGVPRRYYARYYYWGQGTQVTVSS | high polyreactivity |
| QVQLVESGGGLVQAGGSLRLSSAASGSTFGPYPMGWYRPAPGKERELVATISSGGSTYYADSVKGRFTISRDNAKNTVYLQMNSLKPEDTAVYYCAARYWSIYDYWGQGTQVTVSS | low polyreactivity |
| QVQLVESGGGLVQAGGSLRLSSAASGSTFGYYAMRWYRQAPGKARELVAAISSAGSTNDADSVKGRFTISRDNAKNTVYLQMNSLKPEDTAVYYCAAKVRVRWHTGLVTRDYDCGQGTQVTVSS | high polyreactivity |
| QVQLVESGGGLVQAGGSLRLSSAASGSTFHLYAMGWYRQAPGKEREFVAAIRGRGGNTYADSVKGRFTISRDNAKNTVYLQMNSLKPEDTAVYYCAAPLLRDLRSPYSYNYWGQGTQVTVSS | low polyreactivity |
| QVQLVESGGGLVQAGGSLRLSSAASGSTFIGNAMGWYRQAPGTARELVAAITRSGGSTFYADSVKGRFTISRDNAKNTVYLQMNSLKPDDTAVYYCASKGNPYRVPCSSYPKVNYWGQGTQVTVSS | high polyreactivity |
| QVQLVESGGGLVQAGGSLRLSSAASGSTFQLYAMRLYRQAPGKETELVAAISGIGDSTYYADSVKGGFTISRDNAKNTVYLQMNSLKPEDTAVYYCAREFSDGLSGKFDYWGQGTQVTGSS | low polyreactivity |
| QVQLVESGGGLVQAGGSLRLSSAASGSTFSDYAMGWYRQAPGKERELVAGITGGGGTYYADSVKGRFTISRDNAKNTVYLQMNSLKPEDTAVYYCAAGRRHGFGYWGQGTQVTVSS | low polyreactivity |
| QVQLVESGGGLVQAGGSLRLSSAASGSTFTVNGMGWYSQAPGKERELVAAIDGGDGSTYYADSVKGRFTISRDNAKNTVYLQMTSLKPEDTAVYYCAADPPGFTQYGYWGQGTQVTVSS | low polyreactivity |
| QVQLVESGGGLVQAGGSLRLSSAASGSTFWVNTMGWYRQAPGKERELVAGSTSNGGSTSYADSVKGRFTITRDNAKNTVYLQKNSLKPEDTAVYYCNADTYPDYWAYLYDYWGQGTQVTVSS | low polyreactivity |
| QVQLVESGGGLVQAGGSLRLSSAASGSTFYQYAMGWYRQAPGKERELVAAISWDSGSTYYADSVKGRFTISRDNAKNTVYLQMNSLKPEDTAVYYCAASWYGYYDGYAVEYDYWGQGTQVTVSS | low polyreactivity |
| QVQLVESGGGLVQAGGSLRLSSAASGSTFYYNAMGWYRQAPGKEREFVAAITYTGGSTDYADSVKGRFTISRDNAKNTVYLQMNSLKPEDTAVYYCAKGTYGYISTWYDYWGQGTQVTVSS | low polyreactivity |

| Sequence | polyreactivity (PSR sort gate) |
| --- | --- |
| QVQLVESGGGLVQAGGSLRLSSAASGSTIVLYTMGWYRQAPGKEWELVAAITNGTRTYYADSVKGRFTISRDNAKNTVYLQMNSLKPQDTAVYYCAVDGVKRGADLFYYWGHGTQVTVSS | high polyreactivity |
| QVQLVESGGGLVQAGGSLRLSSAASGSTLQYNAMGWYRQAPGKERELVASITWSDGSTYYADSVKGRFTISRDNAKNTVYLQMNSLKPEDTAVYYCNRDDQPALWSSGGYNYWGQGTQVTVSS | high polyreactivity |
| QVQLVESGGGLVQAGGSLRLSSAASGSTLVYYDRGWYRQAPGKERELVATITGTDSTYYADSVKGRFTISRDNAKNTVYLQMNSLKPVDTADCAADRAASRPVYDYWGQGTQVTVSS | low polyreactivity |
| QVQLVESGGGLVQAGGSLRLSSAASGSTSCPYAMGWYRQAPGKERELVATISWIGDRTYYADSVKGRFTISRDNAKNTFYLQMNSLKPEDTAVYYCNADYRGYANLEGDYWGQGTQVTVSS | low polyreactivity |
| QVQLVESGGGLVQAGGSLRLSSAASGYIFDLNAMGRYRQAPGKERELVAAISTGGGTYYADSVKGRFTISRDNAKNTVYLQMNSLKPEDTAVYYCAADWGYWYAEYDYWGQGTLVTVSS | low polyreactivity |
| QVQLVESGGGLVQAGGSLRLSSAASGYTYYVYAMGWYRQAPGKERELVAAISGGSNTYYADSVKGRFTISRDNAKNTVYLQMNSRKPEDTAVFYCAKSSTTYRQRARYDYWGLGTQVTVSS | high polyreactivity |
| QVQLVESGGGLVQAGGSLRLSSAATGRTFPSNAMGWYRQAPGKERELVAAISVSSGRTYYADSVKGRFTISRDNAKNTVYLLMNSLKPEDTAVYYCAALWARYPYLFGFDYWGQGTQVTVSS | high polyreactivity |
| QVQLVESGGGLVQAGGSLRLSSAAYGSIFTYNAMGWYRQAPGKERELVDTISWRGGSTYYADSVKGRFTISRDNAKNTVYLQMNSLKPEDTAVYYCDKSWRGRYDYWGQGTQVTVSS | high polyreactivity |
| QVQLVESGGGLVQAGGSLRLSSAGSGFTFYKNAMGWYRQAPGKERELVAAITSSGGSTYYADSVKGRFTISRDNEKNTVYLQMNSLKPEDTAVYYCNKVYSKHYGYWGQGSQVTVSS | high polyreactivity |
| QVQLVESGGGLVQAGGSLRLSSAPSGFTFDENAMGWYRQAPGINYSGASTYYADSVKGRFTISRDNAKNTVYLQMNSLKPEDTAVYYCAAEVVAQMNYWGQGTQVTVSS | low polyreactivity |
| QVQLVESGGGLVQAGGSLRLSSASSGSTFWIYAMGWYRQAPGKEREMVASIRRACNTYADSVKGRFTISRDNAKNTVYLQMNSLKPEDTAVYYCNARLYLPYGYRRSNGYESDYWGQGTQVTVSS | high polyreactivity |
| QVQLVESGGGLVQAGGSLRLSWAASGFTFTSYTMGWYTPAPGKERELVAAISNTGGSTYYADSVKGRFTISRDNAKNTVYLQMNSLKPEDTAVYYCAARTHTYGKFWRYYWGQGTQVTVSS | low polyreactivity |
| QVQLVESGGGLVQAGGSLRLSWAASGITFRKNAMGWYRQAPGKERQLVATITRRGGSTFYADSVKGRFTISRDNANNTVYLQFKSLKPVDSAVYYFAADYATRDGDYESWGQGTQVTVSS | high polyreactivity |
| QVQLVESGGGLVQAGGSLRLSWAASGLIFYDNMGWYRQAPGKERELVASISSSGGSTSYADSVKGRFTISRDNAKNTVYLQMNSLKPEDTAVYYCAAVRRGYKYVYWGQGTQVTVSS | low polyreactivity |
| QVQLVESGGGLVQAGGSLRLSWAASGLIFYWYAMGWYRQAPGKERELVAAINRGGSTYYADSVKGRFTISRDNAKNTVYLQMNSLKPEDTAVYYCAAGGYRGRKRFGWDYTYNYWGQGTQVTVSS | low polyreactivity |
| QVQLVESGGGLVQAGGSLRLSWAASGLTFTHNAMGWYRQAHGKERELVAAISRRGGSTYYADSVKGRFTISRDNAKNTVYLQRNSLKPEDTAVYYCNAPVKVRATTNWEYDYWGQGTEVTVSS | high polyreactivity |
